Reference: article PMC3005623 (Journal of molecular biology, 2010)
Positions count from the first letter of the chain named. Names may count otherwise. Where two headings read alike, the source gives them in different places.

Key:
Cdc12 = biological target: T1, Cdc12 (S. cerevisiae, UniProt P32468 1-407); test: negative-stain electron microscopy
T1 sequence (looked up): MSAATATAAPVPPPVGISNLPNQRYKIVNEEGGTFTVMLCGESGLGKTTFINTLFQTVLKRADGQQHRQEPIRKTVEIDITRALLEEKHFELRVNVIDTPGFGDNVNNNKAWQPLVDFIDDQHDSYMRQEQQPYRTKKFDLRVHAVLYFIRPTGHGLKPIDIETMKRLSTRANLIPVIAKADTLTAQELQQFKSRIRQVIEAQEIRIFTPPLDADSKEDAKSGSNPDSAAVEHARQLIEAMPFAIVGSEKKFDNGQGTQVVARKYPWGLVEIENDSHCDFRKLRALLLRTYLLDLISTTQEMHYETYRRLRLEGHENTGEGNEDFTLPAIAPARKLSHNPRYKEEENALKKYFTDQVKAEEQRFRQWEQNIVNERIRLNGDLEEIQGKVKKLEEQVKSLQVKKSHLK

[1] = biological target: the molecule itself; test: electron microscopy of lipid monolayers
[2] = biological target: the molecule itself; test: electron microscopy of lipid monolayers; remark: listed apart in the source
[3] = biological target: the molecule itself; test: electron microscopy of lipid monolayers; remark: listed apart in the source

B1: Cdc11(Δ2–18) (natural protein, S. cerevisiae, UniProt P32458 1-415, looked up)
chain: MRGITFTVMIVGQSGSGRSTFINTLCGQQVVDTSTTILLPTDTSTEIDLQLREETVELEDDEGVKIQLNIIDTPGFGDSLDNSPSFEIISDYIRHQYDEILLEESRVRRNPRFKDGRVHCCLYLINPTGHGLKEIDVEFIRQLGSLVNIIPVISKSDSLTRDELKLNKKLIMEDIDRWNLPIYNFPFDEDEISDEDYETNMYLRTLLPFAIIGSNEVYEMGGDVGTIRGRKYPWGILDVEDSSISDFVILRNALLISHLHDLKNYTHEILYERYRTEALSGESVAAESIRPNLTKLNGSSSSSTTTRRNTNPFKQSNNINNDVLNPASDMHGQSTGENNETYMTREEQIRLEEERLKAFEERVQQELLLKRQELLQREKELREIEARLEKEAKIKQEE
percent of particles that are heptamers (Cdc12): 5.4%

B2: Cdc12–(His)6-Cdc3–Cdc10–Cdc11(Δ306–415) complex (complex, S. cerevisiae)
chain 1: T1 sequence (looked up)
chain 2: MSLKEEQVSIKQDPEQEERQHDQFNDVQIKQESQDHDGVDSQYTNGTQNDDSERFEAAESDVKVEPGLGMGITSSQSEKGQVLPDQPEIKFIRRQINGYVGFANLPKQWHRRSIKNGFSFNLLCVGPDGIGKTTLMKTLFNNDDIEANLVKDYEEELANDQEEEEGQGEGHENQSQEQRHKVKIKSYESVIEENGVKLNLNVIDTEGFGDFLNNDQKSWDPIIKEIDSRFDQYLDAENKINRHSINDKRIHACLYFIEPTGHYLKPLDLKFMQSVYEKCNLIPVIAKSDILTDEEILSFKKTIMNQLIQSNIELFKPPIYSNDDAENSHLSERLFSSLPYAVIGSNDIVENYSGNQVRGRSYPWGVIEVDNDNHSDFNLLKNLLIKQFMEELKERTSKILYENYRSSKLAKLGIKQDNSVFKEFDPISKQQEEKTLHEAKLAKLEIEMKTVFQQKVSEKEKKLQKSETELFARHKEMKEKLTKQLKALEDKKKQLELSINSASPNVNHSPVPTKKKGFLR
chain 3: MDPLSSVQPASYVGFDTITNQIEHRLLKKGFQFNIMVVGQSGLGKSTLINTLFASHLIDSATGDDISALPVTKTTEMKISTHTLVEDRVRLNINVIDTPGFGDFIDNSKAWEPIVKYIKEQHSQYLRKELTAQRERFITDTRVHAILYFLQPNGKELSRLDVEALKRLTEIANVIPVIGKSDTLTLDERTEFRELIQNEFEKYNFKIYPYDSEELTDEELELNRSVRSIIPFAVVGSENEIEINGETFRGRKTRWSAINVEDINQCDFVYLREFLIRTHLQDLIETTSYIHYEGFRARQLIALKENANSRSSAHMSSNAIQR
chain 4: MSGIIDASSALRKRKHLKRGITFTVMIVGQSGSGRSTFINTLCGQQVVDTSTTILLPTDTSTEIDLQLREETVELEDDEGVKIQLNIIDTPGFGDSLDNSPSFEIISDYIRHQYDEILLEESRVRRNPRFKDGRVHCCLYLINPTGHGLKEIDVEFIRQLGSLVNIIPVISKSDSLTRDELKLNKKLIMEDIDRWNLPIYNFPFDEDEISDEDYETNMYLRTLLPFAIIGSNEVYEMGGDVGTIRGRKYPWGILDVEDSSISDFVILRNALLISHLHDLKNYTHEILYERYRTEALSGESVAAES
binding result [1]: binds

B3: (His)6–Cdc12-Cdc10-Cdc3 complex (complex, S. cerevisiae)
chain 1: T1 sequence (looked up)
chain 2: B2 chain 3
chain 3: B2 chain 2
binding result [2]: binds

B4: Cdc3(G261V) (natural protein, S. cerevisiae, UniProt P32457 1-520, looked up)
chain: B2 chain 2 with G261V
binding result [3]: binds

B5: (His)6–Cdc12-Cdc11-Cdc3(G261V) complex (complex, S. cerevisiae)
chain 1: T1 sequence (looked up)
chain 2: MSGIIDASSALRKRKHLKRGITFTVMIVGQSGSGRSTFINTLCGQQVVDTSTTILLPTDTSTEIDLQLREETVELEDDEGVKIQLNIIDTPGFGDSLDNSPSFEIISDYIRHQYDEILLEESRVRRNPRFKDGRVHCCLYLINPTGHGLKEIDVEFIRQLGSLVNIIPVISKSDSLTRDELKLNKKLIMEDIDRWNLPIYNFPFDEDEISDEDYETNMYLRTLLPFAIIGSNEVYEMGGDVGTIRGRKYPWGILDVEDSSISDFVILRNALLISHLHDLKNYTHEILYERYRTEALSGESVAAESIRPNLTKLNGSSSSSTTTRRNTNPFKQSNNINNDVLNPASDMHGQSTGENNETYMTREEQIRLEEERLKAFEERVQQELLLKRQELLQREKELREIEARLEKEAKIKQEE
chain 3: B2 chain 2 with G261V
binding result [3]: binds
